Consider 5 compounds from US9987370B2, “Self-assembling drug amphiphiles and methods for synthesis and use” (priority 2012, dated 2018).

Data set [1] can be described thus: Critical micellization concentration of CPT drug amphiphiles by a fluorescence method. The data set is classed as physicochemical. The following applies: 10 mM sodium phosphate. As for the experimental part:
FIGS. 5A-5C depicts the fluorometric determination of the CMC values for mCPT-buSS-Tau (a), dCPT-buSS-Tau (b) and qCPT-buSS-Tau (c) in 10 mM sodium phosphate.
The critical micellization concentrations of mCPT-buSS-Tau, dCPT-buSS-Tau and qCPT-buSS-Tau were determined to be 207 nM, 74 nM and 53 nM, respectively, by a fluorescence method (FIG. 5). These very low values are in the range of macromolecular amphiphiles and are an important property of these conjugates. A high value would lead to rapid dissociation of the nanostructure when diluted upon introduction into the bloodstream, whereas a low value would impart greater stability to the assembly during circulation.

Data set [2] deals with non-small cell lung cancer A549. The data set is classed as cell-based, human. Here is the method:
(§1) To evaluate anti-tumor efficacy, the cytotoxicity of PXL-buSS-Tau towards human breast cancer MCF-7, non-small cell lung cancer A549, and human prostate cancer PC-3 FLU cell lines was determined (FIG. 33).

Data set [3] concerns human breast cancer MCF-7. It counts as cell-based. Here is the method: as §1
Data set [4] deals with human prostate cancer PC-3 FLU. The experiment in a line: Cytotoxicity of PXL-buSS-Tau by SRB assay. The data set is classed as cell-based. Conditions: 48 hours. Here is the method:
as §1
A general note: Sulforhodamine B stains cellular protein and so reports cell mass.

Data set [5] in a line: PXL release study in PBS buffer at 37° C. The data set is classed as physicochemical. Here is the method:
FIG. 32 depicts the PXL-buSS-Tau release curve in PBS buffer under 37° C.
PXL release studies were carried out at 100 μM and 5 μM concentrations in PBS buffer at 37° C. (FIG. 32). […] After 2 hrs, around 70% of the PXL-buSS-Tau was cleaved by glutathione at 5 μM while only 40% paclitaxel was released at 100 μM, again illustrating the protective effect that self-assembly into nanostructures has upon the biodegradable linker.

Data set [6] relates to co-culture of KB-3-1 and KB-V1 cervical cancer cells. The following applies: co-culture KB-3-1 and KB-V1, 48 hours.
Protocol: Cell viability was determined by SRB assay after 48 hours incubation with the appropriate drug-containing media. […] Data are given as mean±s.d. (n=3).
Cell Culture. KB-3-1 and KB-V1 ovarian cancer cells were cultured in DMEM (Invitrogen) containing 10% fetal bovine serum (FBS, Invitrogen) and 1% of antibiotics (Invitrogen), and 1 μg/mL vinblastine was added for KB-V1 to maintain its multidrug resistance. The two cell types were incubated at 37° C. in an Oasis humidified incubator with a 5% CO2 atmosphere (Caron, Marietta, Ohio).
Cytotoxicity Protocol. KB-3-1, KB-V1 or their co-culture (1:1) were seeded onto 96-well plate (5×10^3 cells/well) and allowed to attach overnight. […] Medium containing the same concentration of PXL or/and CPT in the form of free drugs or conjugates (dCPT-Sup35 or dPXL-Sup35) were also used to incubate the cells, with non-treated cells (solvent only) as the control group. After 48 hours incubation, the cell viability was determined using the SRB method according to the manufacturer's protocol (TOX-6, Sigma, St. Louis, Mo.).
Data set [7] concerns PXL-resistant KB-V1 cervical cancer cells. The experiment in a line: Cytotoxicity study of dual drug amphiphiles by SRB. It counts as cell-based. The following applies: KB-V1, 48 hours. Here is the method:
(§2) Both cell lines are sensitive to CPT. […] (n=3).
(§3) Cytotoxicity Study. The activity of the synthesized conjugates to prohibit proliferative ability was assessed through the determination of a dose-response relationship against PXL-sensitive and -resistant cervical cancer cell lines—KB-3-1 and KB-V1, respectively. Both cell lines were individually incubated for 48 hours with the conjugates alone or in combination, either individually to determine their sensitivity to the conjugates (FIGS. 46 a-b) and also as a co-culture to mimic a heterogeneous tumor (FIG. 46 c). […] This antagonistic behavior has been previously observed, and is suspected to arise from an up-regulation of anti-apoptosis genes on co-treatment with CPT that would inhibit the mechanism by which PXL exerts its cytotoxicity.

Data set [8] has as its system PXL-sensitive KB-3-1 cervical cancer cells. The experiment in a line: Cytotoxicity study of dual drug amphiphiles by SRB. The data set is classed as cell-based. The following applies: KB-3-1, 48 hours. Here is the method: as §2, §3

Side chains are listed from the residue outwards. Ends that are not written are not given here. Peptide text beside a SMILES is read from it. * marks the point of attachment. X1 = CC(=O)N[C@@H](CSSCCCC(=O)O[C@@H](C(=O)O[C@H]1C[C@@]2(O)[C@@H](OC(=O)c3ccccc3)[C@@H]3[C@]4(OC(C)=O)CO[C@@H]4C[C@H](O)[C@@]3(C)C(=O)[C@H](OC(C)=O)C(=C1C)C2(C)C)[C@@H](NC(=O)c1ccccc1)c1ccccc1)C(=O)*; Paclitaxel(2'-OCO(CH2)3S) = CC(=O)O[C@H]1C(=O)[C@@]2(C)[C@H]([C@H](OC(=O)c3ccccc3)[C@]3(O)C[C@H](OC(=O)[C@H](OC(=O)CCCS*)[C@@H](NC(=O)c4ccccc4)c4ccccc4)C(C)=C1C3(C)C)[C@]1(OC(C)=O)CO[C@@H]1C[C@@H]2O; buSS = disulfanylbutanoate linker

Take “mCPT-buSS-Tau: one camptothecin linked via disulfanylbutanoate (buSS) linker to cysteine-functionalized Tau peptide CGVQIVYKK (C([buSS-camptothecin])GVQIVYKK; not fully specified (C-terminus))”: the critical micellization concentration in data set [1] is 207 nM.

On to “PXL-buSS-Tau (Ac-CGVQIVYKK; also: PXL-buSS conjugate, attachment site not given here)”, for which the cytotoxic effect entry in data set [2], in data set [3] and in data set [4] was “strong cytotoxic effect” in each case. Besides, the “PXL-buSS-Tau cleaved by glutathione” value in data set [5] (5 μM, after 2 hrs, PBS, 37° C., glutathione) is “around 70%”. Also, the “release at 5 μM compared with 100 μM” value in data set [5] (5 μM, presence of glutathione) is on record as “much faster release than that of 100 μM”. In data set [5] (100 μM, after 30 minutes, presence of glutathione), the release of paclitaxel result is “Significant release of paclitaxel”. In addition, the paclitaxel released in data set [5] (100 μM, after 2 hrs, PBS, 37° C., glutathione) is 40%.

Consider `CC[C@@]1(O)C(=O)OCc2c1cc1n(c2=O)Cc2cc3ccccc3nc2-1` [CPT, camptothecin], for which the activity entry in data set [6] is listed as “moderate activity”.

In the case of `CC(=O)N[C@@H](CSSCCCC(=O)O[C@@H](C(=O)O[C@H]1C[C@@]2(O)[C@@H](OC(=O)c3ccccc3)[C@@H]3[C@]4(OC(C)=O)CO[C@@H]4C[C@H](O)[C@@]3(C)C(=O)[C@H](OC(C)=O)C(=C1C)C2(C)C)[C@@H](NC(=O)c1ccccc1)c1ccccc1)C(=O)NCCCC[C@H](NC(=O)[C@H](CSSCCCC(=O)O[C@@H](C(=O)O[C@H]1C[C@@]2(O)[C@@H](OC(=O)c3ccccc3)[C@@H]3[C@]4(OC(C)=O)CO[C@@H]4C[C@H](O)[C@@]3(C)C(=O)[C@H](OC(C)=O)C(=C1C)C2(C)C)[C@@H](NC(=O)c1ccccc1)c1ccccc1)NC(C)=O)C(=O)NCC(=O)N[C@@H](CC(N)=O)C(=O)N[C@@H](CC(N)=O)C(=O)N[C@@H](CCC(N)=O)C(=O)N[C@@H](CCC(N)=O)C(=O)N[C@@H](CC(N)=O)C(=O)N[C@@H](Cc1ccc(O)cc1)C(=O)N[C@@H](CCCCN)C(=O)N[C@@H](CCCCN)C(N)=O` [dPXL-Sup35] (Ac-C(Paclitaxel(2'-OCO(CH2)3S))K(X1)GNNQQNYKK-NH2), the “sensitivity of cells / activity” value in data set [7] is “no activity”. Besides, the sensitivity of cells entry in data set [8] was “nano-molar sensitivity”.

As to `CC(=O)O[C@H]1C(=O)[C@@]2(C)[C@H]([C@H](OC(=O)c3ccccc3)[C@]3(O)C[C@H](OC(=O)[C@H](O)[C@@H](NC(=O)c4ccccc4)c4ccccc4)C(C)=C1C3(C)C)[C@]1(OC(C)=O)CO[C@@H]1C[C@@H]2O` [PXL, paclitaxel, reference compound], the “sensitivity of cells / activity” value in data set [7] is on record as “no activity”.
